Data taken from publication PMC4300553 (2015).
Ends that are not written are not given here. fluorescein = fluorescein label on the N-terminus of the peptide

Key:
Assay in all cases: fluorescence anisotropy
[1] = molecular target: T1, Src-optimal substrate peptide Rs1 (synthetic construct)
T1 chain: fluorescein-AEEEIYGEFAKKK

[2] = molecular target: T2, Src-optimal substrate peptide Rs1 (synthetic construct)
T2 chain: fluorescein-AEEEIYGEFAKKK

[3] = molecular target: T3, Src-optimal substrate peptide Rs1 (synthetic construct)
T3 chain: fluorescein-AEEEIYGEFAKKK

B1: Src kinase domain 251-533 (protein)
chain: QTQGLAKDAWEIPRESLRLEVKLGQGCFGEVWMGTWNGTTRVAIKTLKPGTMSPEAFLQEAQVMKKLRHEKLVQLYAVVSEEPIYIVTEYMSKGSLLDFLKGEMGKYLRLPQLVDMAAQIASGMAYVERMNYVHRDLRAANILVGENLVCKVADFGLARLIEDNEYTARQGAKFPIKWTAPEAALYGRFTIKSDVWSFGILLTELTTKGRVPYPGMVNREVLDQVERGYRMPCPPECPESLHDLMCQCWRKDPEERPTFEYLQAFLEDYFTSTEPQYQPGENL
Kd [1]: 16 µM
Kd [2]: 17 µM
Kd [3]: 37 µM
